According to patent US20240010680A1, “PEPTIDE DISINFECTANT FOR PREVENTING CORONAVIRUSES” (Xiamen University, priority 2021, published 2024):

Molecular target: hACE2-His purified protein (human (printed as hACE2)) (UniProt Q9BYF1)
Sequence (Q9BYF1 18-740 limits assumed): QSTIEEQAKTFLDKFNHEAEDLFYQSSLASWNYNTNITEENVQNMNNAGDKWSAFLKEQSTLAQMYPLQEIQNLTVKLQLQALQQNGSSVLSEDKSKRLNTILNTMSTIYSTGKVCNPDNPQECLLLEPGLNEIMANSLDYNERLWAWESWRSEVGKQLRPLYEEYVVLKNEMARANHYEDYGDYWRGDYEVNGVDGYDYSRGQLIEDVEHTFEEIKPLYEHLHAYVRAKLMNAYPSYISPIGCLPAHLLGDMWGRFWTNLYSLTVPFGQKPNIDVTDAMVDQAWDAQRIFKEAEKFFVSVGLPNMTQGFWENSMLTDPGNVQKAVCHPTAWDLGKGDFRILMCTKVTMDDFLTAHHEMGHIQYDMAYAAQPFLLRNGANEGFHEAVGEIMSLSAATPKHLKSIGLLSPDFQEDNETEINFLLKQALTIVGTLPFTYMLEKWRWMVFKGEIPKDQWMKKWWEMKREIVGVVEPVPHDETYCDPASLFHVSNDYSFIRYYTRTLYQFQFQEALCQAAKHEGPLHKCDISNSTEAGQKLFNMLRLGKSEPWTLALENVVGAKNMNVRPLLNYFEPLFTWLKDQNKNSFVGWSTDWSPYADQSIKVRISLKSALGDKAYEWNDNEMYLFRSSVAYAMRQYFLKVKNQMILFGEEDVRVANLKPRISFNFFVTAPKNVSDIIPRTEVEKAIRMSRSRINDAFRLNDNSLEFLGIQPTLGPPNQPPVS

Substance S1-HA purified protein (ligand) has a Relative brightness value of 100%.
